Assay results taken from publication PMC7201279, “Structures of substrate- and product-bound forms of a multi-domain copper nitrite reductase shed light on the role of domain tethering in protein complexes” (IUCrJ, 2020).

What was measured:
[1] = target: N-terminal cupredoxin-tethered three-domain copper-containing nitrite reductase from Hyphomicrobium denitrificans strain 1NES1 (Hyphomicrobium denitrificans strain 1NES1); assay: SEC; HiLoad 16/600 Superdex 200 pg, 100 mM Tris-HCl pH 8.0, 500 mM NaCl, 10% (v/v) glycerol, 1.0 ml/min; mass estimated from a calibration curve of marker proteins
Hd 1NES1NiR = target: T1, Hd 1NES1NiR (Hyphomicrobium denitrificans, UniProt N0B9M5); assay: X-ray crystal structure (nitrite-soaked crystal); format: binding; settings: 100 mM NaNO2 soak, pH 5.3; catalytic T2Cu site, side-on, two of three monomers; third monomer holds NO
T1 construct: gene HYPDE_25578; N-terminal cupredoxin-tethered three-domain CuNiR; predicted signal peptide removed; 6xHis-tag cut with TEV; E. coli BL21(DE3), pET-26b(+); Cu-loaded; hexamer (dimer of trimers)
T1 sequence (N0B9M5 38-486): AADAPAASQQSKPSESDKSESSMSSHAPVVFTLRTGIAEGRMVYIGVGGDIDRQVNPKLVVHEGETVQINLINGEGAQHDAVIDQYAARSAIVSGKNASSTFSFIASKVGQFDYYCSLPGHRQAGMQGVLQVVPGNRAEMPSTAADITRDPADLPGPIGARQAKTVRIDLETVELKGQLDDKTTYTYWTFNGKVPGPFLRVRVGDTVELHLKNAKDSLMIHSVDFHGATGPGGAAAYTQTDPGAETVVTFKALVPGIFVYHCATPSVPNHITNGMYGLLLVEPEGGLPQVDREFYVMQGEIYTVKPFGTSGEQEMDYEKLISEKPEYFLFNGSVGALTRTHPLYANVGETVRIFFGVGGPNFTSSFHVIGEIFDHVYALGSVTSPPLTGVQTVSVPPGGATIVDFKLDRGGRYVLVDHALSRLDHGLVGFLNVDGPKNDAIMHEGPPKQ

| stoichiometry N [1] | Molecule | X-ray crystal structure (nitrite-soaked crystal) (Hd 1NES1NiR) |
| --- | --- | --- |
| 6 | N-terminal cupredoxin-tethered three-domain copper-containing nitrite reductase from Hyphomicrobium denitrificans strain 1NES1 (enzyme) | – |
| – | O=NO [NO2, nitrite] | The NO2 ^− is bound to the T2Cu in a side-on conformation |
